# Data from patent publication US20150166663A1 (AstraZeneca / MedImmune, published 2015).
# B1: sc 298 (antibody, V domains shown)
# VH: QVQLVESGGGVVQPGRSLRLSCAASGFTFSSYGMHWVRQAPGKGLEWVAVIWYGGSNKYYADSVKGRFTISRDNSKNTLYLQMNSLRAEDTAVYYCARDLAARRGDYYYYGMDVWGQGTTVTVSS
# VL: SSELTQDPVVSVALGQTVRITCQGDSLRSYYLSWYQQKPGQAPVLVIYGKNNRPSGIPDRFSGSNSGNTASLTITGAQAEDEADYYCNSRDSSGNHLFGGGTKLTVL
# notes: Fully human XenoMouse mAb
# B2: sc 188 (antibody, V domains shown)
# VH: QVQLQESGPGLVKPSQTLSLTCTVSGGSISSGVYYWTWIRQHPGNGLEWIGYIYYSGSTSYNPSLKSRVTISVDTSKKQFSLNLTSVTAADTAVYYCAREGPLRGDYYYGLDVWGQGTTVTVSS
# VL: EIVLTQSPGTLSLSPGERATLSCRAGQTISSRYLAWYQQKPGQAPRPLIYGASSRATGIPDRFSGSGSGTDFTLTISRLEPEDFAVYYCQQYGSSPRTFGQGTKVEIK
# notes: Fully human XenoMouse mAb; Has a glycosylation site (NLT) in heavy chain FR3
# B3: sc 188 SDM (antibody, V domains shown)
# VH: QVQLQESGPGLVKPSQTLSLTCTVSGGSISSGVYYWTWIRQHPGNGLEWIGYIYYSGSTSYNPSLKSRVTISVDTSKKQFSLKLTSVTAADTAVYYCAREGPLRGDYYYGLDVWGQGTTVTVSS
# VL: EIVLTQSPGTLSLSPGERATLSCRAGQTISSRYLAWYQQKPGQAPRPLIYGASSRATGIPDRFSGSGSGTDFTLTISRLEPEDFAVYYCQQYGSSPRTFGQGTKVEIK
# B4: sc 264 (antibody, V domains shown)
# VH: QVQLQESGPGLVKPSQTLSLTCTVSGGSISSGGYYWSWIRQHPGKGLEWIGYIYYSGRTYNNPSLKSRVTISVDTSKNQFSLKLSSVTAADTAVYYCARVATGRGDYHFYAMDVWGQGTTVTVSS
# VL: SYELTQPSSVSVSPGQTARITCSGDVLAKKSARWFHQKPGQAPVLVIYKDSERPSGIPERFSGSSSGTTVTLTISGAQVEDEAAYYCYSAADNNLVFGGGTKLTVL
# notes: Fully human XenoMouse mAb; Has RGD in heavy chain CDR3
# B5: sc 264 RAD (antibody, V domains shown)
# VH: QVQLQESGPGLVKPSQTLSLTCTVSGGSISSGGYYWSWIRQHPGKGLEWIGYIYYSGRTYNNPSLKSRVTISVDTSKNQFSLKLSSVTAADTAVYYCARVATGRADYHFYAMDVWGQGTTVTVSS
# VL: SYELTQPSSVSVSPGQTARITCSGDVLAKKSARWFHQKPGQAPVLVIYKDSERPSGIPERFSGSSSGTTVTLTISGAQVEDEAAYYCYSAADNNLVFGGGTKLTVL
# B6: sc 254 (antibody, V domains shown)
# VH: QVQLQESGPGLVKPSQTLSLTCTVSGGSISSGGYYWSWIRQHPGKGLEWIGYIYYSGSTYYNPSLKSRVTISVDTSKNQFSLKLSSVTAADTAMYYCARYRGPAAGRGDFYYFGMDVWGQGTTVTVSS
# VL: DIVMTQTPLSLSVTPGQPASIFCKSSQSLLNSDGKTYLCWYLQKPGQPPQLLIYEVSNRFSGVPDRFSGSGSGTDFTLKISRVEAEDVGVYYCMQGIQLPWAFFGQGTKVEIK
# notes: Fully human XenoMouse mAb
# B7: sc 133 (antibody, V domains shown)
# VH: QVQLVQSGAEVKKPGASVKVSCKASGYTFTGYYMHWVRQAPGQGLEWMGWINPKSGDTNYAQKFQGRVTLTRDTSTSTAYMELSRLRSDDTAVYYCARRLDVWGQGTTVTVSS
# VL: QSVLTQPPSVSAAPGQKVTISCSGSSSNIGNNYVSWYQQLPGTAPKLLIYDNNKRPSGIPDRFSGSKSGTSATLGITGLQTGDEADYYCGTWNSSLSAGYVFGTGTKVTV
# notes: Fully human XenoMouse mAb
# B8: sc 49 (antibody, V domains shown)
# VH: QVQLQESGPGLVKPSQTLSLTCTVAGGSIRSGDYYWSWIRQHPGKGLEWIGNIYYSGSTYYNPSLKSRITISVATSRNQFSLKLTSVTAADTAVYYCARGGAITIFGVFDYWGQGTLVTVSS
# VL: not shown
# notes: Fully human XenoMouse mAb; also called sc 049
# B9: sc 58 (antibody, V domains shown)
# VH: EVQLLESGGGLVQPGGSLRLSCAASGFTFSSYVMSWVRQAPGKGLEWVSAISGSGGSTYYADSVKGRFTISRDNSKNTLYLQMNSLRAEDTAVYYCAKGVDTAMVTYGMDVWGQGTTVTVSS
# VL: SYELTQPPSVSVSPGQTARITCSGDALPKKYAYWYQQKSGQAPVLVIYDDSKRPSGIPERFSGSSSGTMATLTISGAQVEDEADYYCYSTDSSGNHRVFGGGTKLTVL
# notes: Fully human XenoMouse mAb; also called sc 058
# B10: sc 97 (antibody, V domains shown)
# VH: EVQLVQSGAEVKKPGESLKISCKGSGYSFTSYWIGWVRQMPGKGLEWMGIIYPGDSDTRYSPSFQGQVILSADKSISTAYLQWSSLKASDTAMYYCARHDESSGYYYVFDIWGQGTMVTVSS
# VL: SYELTQPPSVSVSPGQTARITCSGDALPKKYAYWYQQKSGQAPVLVIYEDIKRPSGIPERFSGSSSGTMATLTISGAQVEDEADYYCYSTDSSGNHWVFFGGGTKLTVL
# notes: Fully human XenoMouse mAb; also called sc 097
# B11: sc 161 (antibody, V domains shown)
# VH: EVQLVQSGAEVKKPGESLKISCKGSGYSFTSYWIGWVRQMPGKGLEWMGIIYPGDSDTRYSPSFQGQVTISADKSISTAYLQWSSLKASDTAMYYCARHGIAAAGFYYYYMDVWGQGTTVTVSS
# VL: EIVLTQSPDTLSLSPGERASLSCRASQNVNRNYLVWYQQKPGQAPRLLIYGTSNRATGIPDRFSGSGSGTDFTLTISRLEPEDFAVYYCQQCGSLPFTFGPGTKVDIKR
# notes: Fully human XenoMouse mAb
# B12: sc 277 (antibody, V domains shown)
# VH: EVQLVQSGAEVKKPGESLKISCKGSGYSFPSYWIGWVRQMPGKGLEWMGIIYPGDSDTRYSPSFQGQVTISADKSISTAYLQWSSLKASDTAMYYCARHPMEDGMDVWGQGTTVTVSS
# VL: SYELTQPPSVSVSPGQTARITCSGDALPKKYAFWYQQKSGQAPVLVIYDDNKRPSGIPERFSGSSSGTMATLTITGAQVEDEADYYCYSTDSSGHHVFGGGTKLTVL
# notes: Fully human XenoMouse mAb
# B13: sc 320 (antibody, V domains shown)
# VH: EVQLVESGGGLVKPGGSLRLSCAASGYTFTNYIMHWVRQAPGKGLEWVSSISISSSYIYYADSVKGRFTISRDNAKNSLYLQMNSLRAEDTAVYYCARDPVPLERRDYYYGMDVWGQGTTVTVSS
# VL: QSVLTQPPSMSAAPGQKVTISCSGSSSNIGNNYVSWYQQLPGTAPKLLIYDNNKRPSGIPDRFSGSKSGTSATLGITGLQTGDEADYYCGTWDSSLSAGVFGGGTKLTVL
# notes: Fully human XenoMouse mAb
# B14: sc 374 (antibody, V domains shown)
# VH: QVQLVESGGGVVQPGRSLRLSCAASGFTFSSYGMHWVRQAPGKGLEWVAVIWYDGSNKYYADSVKGRFTISRDNSKNTLYLQMNSLRAEDTAVYYCARTEGIAARLYYYYGMDVWGQGTTVTVSS
# VL: not shown
# notes: Fully human XenoMouse mAb
# Experiments:
# cynomolgus αVβ6 on cells [1] = molecular target: T1, cynomolgus αVβ6 on cells (cynomolgus); experiment: FACS, supernatant, HEK-293 cells transfected with cynomolgus αV and β6
# T1 construct: whole, on cells; also called macaque αVβ6; Mac AVB6
# Description: The assays were performed as follows. […] The cells were then pelleted, the supernatant discarded, and resuspended in FACS buffer and incubated for 30 minutes at 37° C. Cells were then washed twice with FACS buffer and resuspended in a final volume of 100 μL FACS buffer per well.
# HEK-293 cells were transiently transfected with cynomolgus αV and cynomolgus β6. After 48 hours, the cells were collected and resuspended in FACS buffer to reach a final concentration of approximately 50,000 cells in 100 μL.
# Approximately 100,000 cells total, comprising a 50:50 mix of CFSE-labeled A375M cells and transfected 293 cells, were used in each reaction as follows. 100 μL of CFSE-labeled A375M cells and 100 μL of 293 cells were dispensed into a V-bottom plate. The cells in the plate were pelleted at 1500 rpm for 3 minutes, and then resuspended in 100 μL FACS buffer. The pelleting step was repeated, and the FACS buffer supernatant was removed. The harvested antibody-containing supernatants, or control primary antibodies were added in a volume of 50 μL and the cells were resuspended. […] The plate was incubated on ice for 45 minutes, after which 100 μL FACS buffer was added to dilute the primary antibody. The cells were then pelleted by centrifuging at 1500 rpm for 3 minutes, and the pellet was resuspended in 100 μL FACS buffer. The pelleting step was repeated, and the FACS buffer supernatant was removed. Cells were then resuspended in the appropriate secondary antibody (5 μg/ml) with 7AAD dye (10 μg/ml), and stained on ice for 7 minutes. Then 150 μL of FACS buffer was added and the cells were pelLeted at 1500 rpm for 3 minutes, after which the cells were washed in 100 μL FACS buffer, pelleted, and then resuspended in 250 μL buffer and added to FACS tubes. Samples were analyzed on a high throughput FACS machine and analyzed using Cell Quest Pro software.
# cynomolgus αVβ6 on cells [2] = molecular target: T1, cynomolgus αVβ6 on cells; experiment: FACS, purified mAb, transiently transfected HEK-293 cells (parental cells 49)
# Description: (§1) Cross-reactivity of the mAbs to macaque and mouse αVβ6 was tested on the purified mAbs using FACS analysis on HEK-293 cells transiently transfected with cynomolgus or mouse αV, β6, or αVβ6. Approximately 48 hours after transfection, the cells were collected and resuspended in FACS buffer to reach a final concentration of approximately 50,000 cells in 100 μL.
# (§2) Approximately 100,000 cells total, were used in each reaction as follows. 200 μL of 293 cells were dispensed into a V-bottom plate. The cells in the plate were pelleted at 1500 rpm for 3 minutes, and then resuspended in 100 μL FACS buffer. The pelleting step was repeated, and the FACS buffer supernatant was removed. The purified mAbs, or control primary antibodies were added in a volume of 50 μL and the cells were resuspended. […] The plate was incubated on ice for 45 minutes, after which 100 μL FACS buffer was added to dilute the primary antibody. The cells were then pelleted by centrifuging at 1500 rpm for 3 minutes, and the pellet was resuspended in 100 μL FACS buffer. The pelleting step was repeated, and the FACS buffer supernatant was removed. Cells were then resuspended in the appropriate secondary antibody (5 μg/ml) with 7AAD dye (10 μg/ml), and stained on ice for 7 minutes. Then 150 μL of FACS buffer was added and the cells were pelleted at 1500 rpm for 3 minutes, after which the cells were washed in 100 μL FACS buffer, pelleted, and then resuspended in 250 μL buffer and added to FACS tubes. Samples were analyzed on a high throughput FACS machine and analyzed using Cell Quest Pro software.
# mouse αVβ6 on cells = molecular target: T2, mouse αVβ6 on cells (mouse, UniProt P43406 31-1044; Q9Z0T9 22-787); experiment: as above
# T2 construct: whole, on cells; also called Mouse alphaVbeta6
# Description: as §1, §2
# [3] = molecular target: T3, cynomolgus αV on transfected HEK-293 cells (cynomolgus, UniProt A0A2K5WCD3 31-1048); experiment: as above
# T3 construct: Chain transfected alone; also called Cynomolgus alphaV
# Description: as §1, §2
# soluble αVβ6 = molecular target: T4, soluble αVβ6 (human, UniProt P06756 31-992; P18564 22-709); experiment: competition ELISA: soluble αVβ6 (250 ng/ml) pre-incubated with the mAb, then binding to plate-coated GST-LAP, bound αVβ6 detected with mAb 2075
# T4 construct: extracellular domain; also called soluble antigen; soluble αVβ6 protein
# Description: The wells were then washed three times using 300 μL/well of assay diluent. […] The wells were then washed three times using 300 μL/well of assay diluent, and incubated with goat anti-mouse IgG Fc-peroxidase at 400 ng/ml in assay diluent (50 μL/well) for one hour at room temperature. The wells were then washed three times using 300 μL/well of assay diluent, and developed using 1-step TMB (Neogen) at a total volume of 50 μL/well. After 15 minutes, the developing reaction was quenched with 50 μL/well of 1N Hydrochloric acid.
# [4] = molecular target: T5, human αVβ6 integrin on cells (human, UniProt P06756 31-1048; P18564 22-788); experiment: FACS titration on K562 cells stably expressing human αVβ6, Cy5 goat anti-human detection, averaged geometric mean fluorescence
# T5 construct: whole, on cells; also called alphaVbeta6
# Description: K562 cells expressing αVβ6 were resuspended in filtered HBS buffer containing 1 mM of MgCl₂ and 1 mM of CaCl₂ at a concentration of approximately 6 million cells/mL. The cells were kept on ice. […] The 12th well in each row contained buffer only. Titrations were done in triplicate. Additional HBS and cells were added to each well so that the final volume was 300 μL/well and each well contained approximately 120,000 cells. […] The plates were then shaken for 40 minutes at 4° C., and thereafter were spun and washed once again three times with HBS. The Geometric Mean Fluorescence (GMF) of 20,000 “events” for each mAb concentration was recorded using a FACSCalibur instrument, and the corresponding triplicate titration points were averaged to give one GMF point for each mAb concentration. A plot of the averaged GMF as a function of molecular mAb concentration with Scientist software was fit nonlinearly using the equation:
# [5] = molecular target: T5, human αVβ6 integrin on cells; experiment: FACS, 293T-αVβ6 cells, 5 ug/ml
# Description: (§3) Cells were divided between reactions in a V-bottom 96-well plate (Sarstedt), and the cells in the plate were pelleted at 1500 rpm for 3 minutes, after which the HBSS supernatant was removed. The primary antibody was added at the concentration indicated in Table 19 in a volume of 50 μL, and the cells were resuspended and thereafter incubated on ice for 60 minutes. After incubation, the cells were pelleted by centrifugation at 1500 rpm for 3 minutes, resuspended in 100 μL wash buffer, and then pelleted again. Cells were then resuspended in the appropriate secondary antibody at 2 μg/ml with 10 μg/ml 7AAD, and stained on ice for 7 minutes, after which 150 μL of wash buffer was added, and cells were pelleted at 1500 rpm for 3 minutes and then resuspended in 100 μL of HBSS with 1% BSA. Samples were read on a FACS machine with a HTS attachment and the data was analyzed using Cell Quest Pro software.
# [6] = molecular target: T5, human αVβ6 integrin on cells; experiment: FACS, 293T-αVβ6 cells, 20 ug/ml
# Description: as §3
# [7] = molecular target: T5, human αVβ6 integrin on cells; experiment: FACS, 293T-αVβ6 cells, 1.25 ug/ml
# Description: as §3
# [8] = molecular target: T5, human αVβ6 integrin on cells; experiment: FACS titration on K562 cells stably expressing human αVβ6, done as in Example 18, averaged geometric mean fluorescence
# [9] = molecular target: T6, cynomolgus β6 on transfected HEK-293 cells (cynomolgus); experiment: FACS, purified mAb, transiently transfected HEK-293 cells
# T6 chain: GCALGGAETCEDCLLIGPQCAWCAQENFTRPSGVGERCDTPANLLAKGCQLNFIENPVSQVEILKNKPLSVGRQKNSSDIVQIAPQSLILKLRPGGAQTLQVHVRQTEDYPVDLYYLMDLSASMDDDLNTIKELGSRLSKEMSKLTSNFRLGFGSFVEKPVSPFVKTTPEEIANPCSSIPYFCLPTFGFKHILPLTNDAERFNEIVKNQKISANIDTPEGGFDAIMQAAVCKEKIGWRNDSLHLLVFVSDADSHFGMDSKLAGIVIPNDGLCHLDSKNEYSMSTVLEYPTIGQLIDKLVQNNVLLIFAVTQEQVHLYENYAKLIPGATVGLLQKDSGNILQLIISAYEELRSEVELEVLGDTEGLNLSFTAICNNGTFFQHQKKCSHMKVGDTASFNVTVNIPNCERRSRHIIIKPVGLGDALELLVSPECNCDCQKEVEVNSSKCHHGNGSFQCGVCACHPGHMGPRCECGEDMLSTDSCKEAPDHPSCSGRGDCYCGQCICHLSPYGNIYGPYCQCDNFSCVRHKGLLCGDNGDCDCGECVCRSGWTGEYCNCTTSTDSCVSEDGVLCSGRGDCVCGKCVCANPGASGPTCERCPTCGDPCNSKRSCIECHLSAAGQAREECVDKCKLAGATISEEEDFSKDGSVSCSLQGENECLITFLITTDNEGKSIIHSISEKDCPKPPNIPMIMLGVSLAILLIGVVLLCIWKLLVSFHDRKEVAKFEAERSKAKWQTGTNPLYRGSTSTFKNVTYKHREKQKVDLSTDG
# Description: as §1, §2
# cynomolgus αVβ6 on cells [10] = molecular target: T1, cynomolgus αVβ6 on cells; experiment: as above
# Description: as §1, §2
# [11] = molecular target: T3, cynomolgus αV on transfected HEK-293 …; experiment: as above
# Description: as §1, §2
# T4 sequence (P06756 31-992, one chain of several): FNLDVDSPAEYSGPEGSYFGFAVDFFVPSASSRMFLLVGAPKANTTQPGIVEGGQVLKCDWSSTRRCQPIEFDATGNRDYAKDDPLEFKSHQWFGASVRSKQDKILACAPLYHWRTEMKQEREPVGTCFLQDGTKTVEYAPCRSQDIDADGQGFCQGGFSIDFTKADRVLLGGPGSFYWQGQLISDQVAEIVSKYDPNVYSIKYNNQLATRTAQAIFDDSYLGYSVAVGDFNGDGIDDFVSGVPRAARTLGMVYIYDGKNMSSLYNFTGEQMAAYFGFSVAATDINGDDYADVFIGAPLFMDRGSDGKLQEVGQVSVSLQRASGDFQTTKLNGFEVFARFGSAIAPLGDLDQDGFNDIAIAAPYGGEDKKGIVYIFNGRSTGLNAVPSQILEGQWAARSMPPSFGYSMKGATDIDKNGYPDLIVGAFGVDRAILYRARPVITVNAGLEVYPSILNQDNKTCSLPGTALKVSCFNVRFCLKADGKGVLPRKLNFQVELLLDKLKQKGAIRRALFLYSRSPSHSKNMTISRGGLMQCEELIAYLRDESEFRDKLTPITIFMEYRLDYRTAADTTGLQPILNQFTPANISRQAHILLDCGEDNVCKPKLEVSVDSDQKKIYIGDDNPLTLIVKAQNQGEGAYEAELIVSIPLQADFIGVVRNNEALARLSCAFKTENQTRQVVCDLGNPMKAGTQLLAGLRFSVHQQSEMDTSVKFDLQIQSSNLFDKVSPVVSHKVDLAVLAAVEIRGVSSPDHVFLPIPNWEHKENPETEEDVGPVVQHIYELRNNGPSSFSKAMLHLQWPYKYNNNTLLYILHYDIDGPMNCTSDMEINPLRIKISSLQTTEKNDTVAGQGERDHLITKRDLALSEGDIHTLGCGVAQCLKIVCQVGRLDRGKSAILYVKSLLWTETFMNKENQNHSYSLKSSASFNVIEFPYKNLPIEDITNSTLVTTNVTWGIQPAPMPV
# T5 sequence (P06756 31-1048, one chain of several): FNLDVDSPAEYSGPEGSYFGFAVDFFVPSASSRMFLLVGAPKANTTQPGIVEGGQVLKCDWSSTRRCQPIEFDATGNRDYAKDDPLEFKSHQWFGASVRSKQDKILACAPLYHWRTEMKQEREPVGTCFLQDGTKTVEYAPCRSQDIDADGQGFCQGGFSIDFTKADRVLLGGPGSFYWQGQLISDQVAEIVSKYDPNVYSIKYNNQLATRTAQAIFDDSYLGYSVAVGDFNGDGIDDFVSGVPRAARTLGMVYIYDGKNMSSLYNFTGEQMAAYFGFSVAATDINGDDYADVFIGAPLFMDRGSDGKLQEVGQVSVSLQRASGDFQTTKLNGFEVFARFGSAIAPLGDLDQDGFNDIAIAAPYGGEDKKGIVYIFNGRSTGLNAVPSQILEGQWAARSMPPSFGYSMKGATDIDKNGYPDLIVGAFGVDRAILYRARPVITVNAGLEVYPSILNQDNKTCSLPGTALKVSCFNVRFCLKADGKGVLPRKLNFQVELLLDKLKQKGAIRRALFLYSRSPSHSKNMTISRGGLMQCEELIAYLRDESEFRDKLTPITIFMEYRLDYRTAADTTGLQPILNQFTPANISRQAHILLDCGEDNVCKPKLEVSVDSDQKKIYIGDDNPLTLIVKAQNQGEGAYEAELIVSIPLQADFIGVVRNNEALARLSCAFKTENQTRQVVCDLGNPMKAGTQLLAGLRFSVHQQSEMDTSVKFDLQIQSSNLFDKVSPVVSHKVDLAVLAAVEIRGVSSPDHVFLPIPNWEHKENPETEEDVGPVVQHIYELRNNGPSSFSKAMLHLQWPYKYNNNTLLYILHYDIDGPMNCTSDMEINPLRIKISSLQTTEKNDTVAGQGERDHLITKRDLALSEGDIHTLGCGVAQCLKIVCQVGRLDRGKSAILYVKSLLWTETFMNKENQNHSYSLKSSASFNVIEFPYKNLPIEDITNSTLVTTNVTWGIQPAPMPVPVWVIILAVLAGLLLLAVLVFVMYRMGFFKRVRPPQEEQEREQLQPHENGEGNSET
# T3 sequence (A0A2K5WCD3 entry or part of it limits assumed): as the sequence (P06756 31-1048, one chain of several) above, with M118L, L264I, E270D, R562W, S609F, N660S, V753I, T840A counted along it
# T2 sequence (P43406 31-1044, chain 1 of 2): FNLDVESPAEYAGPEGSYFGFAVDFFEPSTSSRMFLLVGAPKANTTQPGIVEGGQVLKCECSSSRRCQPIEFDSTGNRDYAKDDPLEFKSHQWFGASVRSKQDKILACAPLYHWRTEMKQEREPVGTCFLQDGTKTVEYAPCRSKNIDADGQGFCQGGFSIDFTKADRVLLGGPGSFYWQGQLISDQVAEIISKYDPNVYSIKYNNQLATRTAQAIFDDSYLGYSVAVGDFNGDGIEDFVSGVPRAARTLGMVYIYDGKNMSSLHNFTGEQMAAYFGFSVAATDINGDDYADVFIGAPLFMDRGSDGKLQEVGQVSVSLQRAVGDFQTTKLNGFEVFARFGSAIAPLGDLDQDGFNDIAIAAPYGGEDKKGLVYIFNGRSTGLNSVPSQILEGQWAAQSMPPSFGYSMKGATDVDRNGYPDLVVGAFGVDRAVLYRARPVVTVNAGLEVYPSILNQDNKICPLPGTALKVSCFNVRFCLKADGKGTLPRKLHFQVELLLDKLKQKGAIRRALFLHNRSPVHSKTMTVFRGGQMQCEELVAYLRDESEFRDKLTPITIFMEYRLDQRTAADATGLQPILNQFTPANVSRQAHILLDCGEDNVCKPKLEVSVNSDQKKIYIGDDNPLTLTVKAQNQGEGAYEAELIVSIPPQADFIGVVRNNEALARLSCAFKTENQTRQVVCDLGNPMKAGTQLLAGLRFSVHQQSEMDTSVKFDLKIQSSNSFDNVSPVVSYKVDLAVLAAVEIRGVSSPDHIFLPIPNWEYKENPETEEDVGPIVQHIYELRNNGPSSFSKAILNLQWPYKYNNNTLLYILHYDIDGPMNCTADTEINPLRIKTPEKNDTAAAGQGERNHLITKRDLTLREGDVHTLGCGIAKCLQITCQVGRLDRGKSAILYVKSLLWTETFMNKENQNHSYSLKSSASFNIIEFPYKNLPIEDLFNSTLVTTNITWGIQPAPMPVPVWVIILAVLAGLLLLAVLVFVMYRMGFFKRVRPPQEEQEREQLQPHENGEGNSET
# T2 sequence (Q9Z0T9 22-787, chain 2 of 2): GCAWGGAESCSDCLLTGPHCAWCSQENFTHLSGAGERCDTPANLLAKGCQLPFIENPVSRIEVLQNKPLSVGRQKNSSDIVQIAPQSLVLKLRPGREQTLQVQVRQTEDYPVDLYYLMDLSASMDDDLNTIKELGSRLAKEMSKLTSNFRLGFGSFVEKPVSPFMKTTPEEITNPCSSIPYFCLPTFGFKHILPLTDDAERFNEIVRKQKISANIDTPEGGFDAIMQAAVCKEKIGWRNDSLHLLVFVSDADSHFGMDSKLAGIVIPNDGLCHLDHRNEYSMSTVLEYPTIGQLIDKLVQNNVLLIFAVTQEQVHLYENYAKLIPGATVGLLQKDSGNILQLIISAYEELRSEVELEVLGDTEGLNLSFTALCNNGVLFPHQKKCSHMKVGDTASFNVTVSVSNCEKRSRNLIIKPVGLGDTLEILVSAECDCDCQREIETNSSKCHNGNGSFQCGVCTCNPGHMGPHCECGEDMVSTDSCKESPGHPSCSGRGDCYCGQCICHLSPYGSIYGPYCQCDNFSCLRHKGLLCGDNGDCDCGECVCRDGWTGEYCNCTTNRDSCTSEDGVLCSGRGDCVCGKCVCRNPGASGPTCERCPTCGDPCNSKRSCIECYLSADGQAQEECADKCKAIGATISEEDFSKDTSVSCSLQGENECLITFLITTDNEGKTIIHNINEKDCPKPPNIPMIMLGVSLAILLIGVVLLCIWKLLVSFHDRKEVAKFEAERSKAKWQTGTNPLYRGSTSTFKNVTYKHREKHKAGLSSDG
Binder,Mac AVB6 % Cells Shifted (cynomolgus αVβ6 on cells [1]) [%],Mac AVB6 GeoMean (cynomolgus αVβ6 on cells [1]),also measured
B1,53,63.1,percent of cells shifted (cynomolgus αVβ6 on cells [2]): 38%; percent of cells shifted (mouse αVβ6 on cells): 53%; percent of cells shifted [3]: 48%; IC50 (read off the curve) (soluble αVβ6): ~0.2 µg/mL
B2,,23.9,EC50 (read off the curve) [4]: ~60 pM; IC50 (read off the curve) (soluble αVβ6): ~0.2 µg/mL
B3,,,Geometric Mean Shift [5]: 6820 arbitrary units; Geometric Mean Shift [6]: 6760 arbitrary units; Geometric Mean Shift [7]: 4530 arbitrary units
B4,55,66.4,
B5,,,Geometric Mean Shift [5]: 6840 arbitrary units; Geometric Mean Shift [6]: 7240 arbitrary units; Geometric Mean Shift [7]: 4890 arbitrary units; EC50 (read off the curve) [8]: ~80 pM
B6,,78.5,IC50 (read off the curve) (soluble αVβ6): ~0.3 µg/mL
B7,32,35.2,percent of cells shifted [9]: 10%; percent of cells shifted (cynomolgus αVβ6 on cells [10]): 28%; percent of cells shifted [11]: 5%
B8,23,30.2,
B9,25,22.8,
B10,35,37,
B11,14,33,
B12,35,33.4,
B13,19,33.5,
B14,,61.8,
